Square brackets hold non-standard residues; d marks the D form. Ends that are not written are not given here.
What was measured:
[1] = biological target: T1, HLA-A*02:01 (Homo sapiens, UniProt P04439, D140Y/D185E/D98H/E176V/E277Q/G131W/G231S/I119V/I121R/I166T/I218V/L300P/L318F/N151K/N90K/P208A/P217A/Q86G/Q94H/R138H/R169H/T345S); test: Peptide switching (exchange) on peptide-HLA-A*02:01 complex, anti-DNP antibody flow cytometry; format: binding; conditions: 20 micromolar peptide, 1 micromolar HLA-A*02:01 with DNP-labelled initial peptide LMYAKRAFV, 1 mM Glycl-Methionine, room temperature 4 hours; relative to control peptide […] set as 100%
Description: To test binding of Immunogenic and Non-Immunogenic peptides to an MHC Class I complex, a peptide-HLA-A*02:01 complex with an initial peptide LMYAKRAFV (SEQ ID NO: 4) in the peptide binding groove was purchased. The initial peptide included a dinitrophenyl (DNP) moiety conjugated to the lysine at position 5. Two peptide antigens were then tested for their ability to bind to the MHC Class I complex: SLYSYFQKV (SEQ ID NO: 5) derived from SLC45A2 and SLLPIMwQLY (SEQ ID NO: 6) derived from TCL1. The peptides were resuspended in DMSO to 5 mg/mL. The peptides were then further diluted ten-fold in PBS. […]
Samples of unswitched peptide-MHC and switched peptide-MHC were then captured on Streptavidin-coated DynaBeads (ThermoFisher). […] The peptide-MHC beads were then stored at 4° C. until they were analyzed for peptide exchange.
To quantify peptide exchange, a FITC-conjugated anti-DNP antibody specific for the DNP-conjugated initial peptide was added to a sample of each captured peptide-MHC. […] The staining for pre-assembled peptide and intact pHLA complexes were detected by Flow Cytometry on a FACSCelesta with High-Throughput Sampler (BD Biosciences). […] Approximately 5,000 bead events were recorded for each sample. The Median Fluorescence Intensity (MFI) in the APC and FITC channels of each sample was then recorded. […]

[2] = biological target: T1, HLA-A*02:01; test: Peptide binding and stability of pMHC complexes under culture conditions (W6/32 antibody, flow cytometry); conditions: pMHC on Streptavidin DynaBeads in T Cell Culture Media at 37° C.; exponential decay fit of APC MFI
Description: To assess the stability of the pMHC Class I-peptide antigen complexes under the conditions that are used to culture T Cells, pMHC Class I complexes were first bound to beads. Biotinylated HLA-A*02:01 complexes loaded with either SLYSYFQKV (SEQ ID NO: 5) or SLLPIMwQLY (SEQ ID NO: 6) peptides were diluted to 0.83 micrograms/mL in Assay Buffer (PBS with 2 mM EDTA and 0.1% Bovine Serum Albumin). To 0.6 mL of the pMHC solutions in microcentrifuge tubes, 10^7 Streptavidin-coated DynaBeads (M-280, ThermoFisher) were added. The beads were mixed in the pMHC solution for 4 minutes at 2,000 rpm on a ThermoMixer (Eppendorf). The pMHC-beads were then captured on a magnetic rack, and the solution containing unbound pMHC removed by aspiration. 1 mL of Assay Buffer was added to the tubes, and then aspirated. The beads were then resuspended in 0.1 mL of Assay Buffer. The beads were then stored at 4° C. until use. […]
Antibody binding to the beads was then detected on a FACSCelesta with High-Throughput Sampler (BD Biosciences). […] Approximately 25,000 bead events were recorded for each sample. The Median Fluorescence Intensity (MFI) in the APC channel for the pHLA-beads in each sample was then recorded. […] The half-lives for the pHLA complexes were then calculated from the fitted decay constant.

Substance	percent peptide switching [1]	half-life of peptide-HLA-A*02:01 complex [2]
SLLPIMwQLY (SLLPIM[dW]QLY) [TCL1-derived peptide, non-immunogenic peptide antigen derived from TCL1]	about 90%	about 0.5 hours
SLYSYFQKV (SLC45A2-derived peptide) [immunogenic peptide antigen derived from SLC45A2]	about 99%	about 17 hours
